# Reference: patent US10385103B2, “Cell-permeable (ICP)-SOCS3 recombinant protein and uses thereof” (CELLIVERY THERAPEUTICS, INC., priority 2014, dated 2019)
# Tested on: TNF-α
# Test: LPS/IFN-γ-induced cytokine secretion in peritoneal macrophages (cytometric bead array), TNF-α
# Type: cell-based, C3H/HeJ mice
# Conditions: 10 μM protein; IFN-γ and LPS
# Description: Peritoneal macrophages were obtained from C3H/HeJ mice (Doo-Yeol Biotech Co. Ltd. Korea) Peritoneal macrophages were incubated with 10 μM SOCS3 recombinant proteins (1:HS3, 2:HM165S3, 3:HM165S3A and 4:HM165S3B, respectively) for 1 hr at 37° C. and then stimulated them with LPS (Lipopolysaccharide)(500 ng/ml) and/or IFN-γ (100 U/ml) without removing iCP-SOCS3 proteins for 3, 6, or 9 hrs. The culture media were collected, and the extracellular levels of cytokine (TNF-α, IL-6) were measured by a cytometric bead array (BD Pharmingen, San Diego, Calif., USA) according to the manufacturer's instructions.
molecule,measurement,value
"HM165S3B: His-tagged recombinant protein of aMTD165, human SOCS3 and solubilization domain B; prototype improved cell-permeable SOCS3 (protein, Amino acid sequence of HM165S3B) MGSSHHHHHHSSGLVPRGSHMALAVPVALAIVPVTHSKFPAAGMETSRPLDTSLRLKTFSSKSEYQLVVNAVRKLQESGFYWSAVTGGEANLLLSAEPAGTFLIRDSSDQRHFFTLSVKTQSGTKNLRIQCEGGSFSLQSDPRSTQPVPRFDCVLKLVHHYMETPPPGAPSFPSPPTEPSSEVPEQPSAQPLPGSPPRRAYYIYSGGEKIPLVLSRPLSSNVATLQHLCRKTVNGHLDSYEKVTQLPGPIREFLDQYDAPLGSMAEQSDKDVKYYTLEEIQKHKDSKSTWVILHHKVYDLTKFLEEHPGGEEVLGEQAGGDATENFEDVGHSTDARELSKTYIIGELHPDDRSKIAKPSETL",effect on TNF-α secretion,showed the greatest inhibitory effect on cytokine secretion
